The assay addresses T1, mouse MLH1 (endogenous, mouse testicular lysates) (mouse, UniProt Q9JK91 1-760).
T1 construct: Endogenous protein immunoprecipitated from mouse testicular lysates
T1 sequence (looked up): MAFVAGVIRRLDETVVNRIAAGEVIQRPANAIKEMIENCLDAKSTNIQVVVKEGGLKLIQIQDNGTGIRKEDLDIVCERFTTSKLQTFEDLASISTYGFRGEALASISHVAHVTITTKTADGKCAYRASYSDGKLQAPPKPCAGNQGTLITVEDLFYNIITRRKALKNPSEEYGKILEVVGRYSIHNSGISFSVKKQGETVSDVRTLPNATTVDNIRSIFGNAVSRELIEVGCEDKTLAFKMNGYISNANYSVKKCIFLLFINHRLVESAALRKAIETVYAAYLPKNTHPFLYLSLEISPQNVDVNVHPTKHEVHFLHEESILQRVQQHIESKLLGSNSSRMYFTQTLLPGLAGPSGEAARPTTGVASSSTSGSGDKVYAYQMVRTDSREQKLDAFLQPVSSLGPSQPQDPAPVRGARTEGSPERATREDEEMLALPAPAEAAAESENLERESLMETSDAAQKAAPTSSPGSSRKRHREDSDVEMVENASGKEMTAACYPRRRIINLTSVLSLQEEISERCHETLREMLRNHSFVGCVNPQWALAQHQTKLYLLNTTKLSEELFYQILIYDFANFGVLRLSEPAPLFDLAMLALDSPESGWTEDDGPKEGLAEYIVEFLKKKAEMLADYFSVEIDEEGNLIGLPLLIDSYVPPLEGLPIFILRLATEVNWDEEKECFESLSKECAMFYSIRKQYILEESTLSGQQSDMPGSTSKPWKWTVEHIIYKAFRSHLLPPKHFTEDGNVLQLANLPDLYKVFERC
The assay is described as follows: co-immunoprecipitation from mouse testicular lysates with anti-RAD51 antibody, Western blotting. Background: A western blot detects proteins with antibodies after separation by electrophoresis.

B1: mouse RAD51 (endogenous, mouse testicular lysates) (other, UniProt Q08297 2-339, looked up)
chain: AMQMQLEASADTSVEEESFGPQPISRLEQCGINANDVKKLEEAGYHTVEAVAYAPKKELINIKGISEAKADKILTEAAKLVPMGFTTATEFHQRRSEIIQITTGSKELDKLLQGGIETGSITEMFGEFRTGKTQICHTLAVTCQLPIDRGGGEGKAMYIDTEGTFRPERLLAVAERYGLSGSDVLDNVAYARGFNTDHQTQLLYQASAMMVESRYALLIVDSATALYRTDYSGRGELSARQMHLARFLRMLLRLADEFGVAVVITNQVVAQVDGAAMFAADPKKPIGGNIIAHASTTRLYLRKGRGETRICKIYDSPCLPEAEAMFAINADGVGDAKD
notes: Endogenous protein immunoprecipitated from mouse testicular lysates
As to B1, the binding result is listed as “no binding”.

Values taken from US6794147 (Pfizer, dated 2004).
